Experimental data from patent US9657061B2, “Hydrochloride salt of peptide and its use in combination with other peptides for immunotherapy” (Circassia Limited, priority 2012, dated 2017).
Where no end group is shown, it is not given here.

What was measured:
[1] = Stability of salts of MLA01 on storage: purity by HPLC; assay type: physicochemical; settings: for course of purity over the 4 week test period (in words): −20° C., 5° C., 25° C./60% RH, 40° C./75% RH
Description: (§1) The stability of MLA01 trifluoroacetate, MLA01 acetate and MLA01 hydrochloride when stored in an inert container over a four week period under different storage conditions was tested. The specific storage conditions evaluated are set out in Table 1.
(§2) Samples of each MLA01 salt were stored in inert glass containers with polypropylene twist-off caps. The samples were stored and removed at various time points for testing according to the schedule in Table 2, where X denotes removal of a sample for testing.
The purity of each sample was tested by HPLC. Purity was measured as area-percent, and the results are set out in Tables 3A to 3C below (where “-” denotes test not performed).

[2] = Stability of salts of MLA01 on storage: levels of three specific impurities (RRT 0.978, 1.072, 1.099); assay type: physicochemical
Description: as §1, §2
The levels of three specific impurities with relative retention times (RRTs) of 0.978, 1.072 and 1.099 were also measured. The impurity with an RRT of 0.978 is the impurity formed by cleavage of the terminal Cys-Pro residues from the MLA01 peptide. The impurity with an RRT of 1.072 is the cysteine sulfinic acid impurity of the MLA01 peptide. The impurity with an RRT of 1.099 is the dimer of the MLA01 peptide. The values are set out in Tables 4A to 4C below (where “<” denotes less than 0.1%).

| Sequence | stability compared with other salt forms (in words) ([1]; 4 week storage, all conditions tested) | purity (HPLC) ([1]; storage 5° C., 2 weeks) [area-percent] | purity (HPLC) ([1]; storage 5° C., 4 weeks) [area-percent] | purity (HPLC) ([1]; storage 25° C./60% RH, 2 weeks) [area-percent] | purity (HPLC) ([1]; storage 25° C./60% RH, 4 weeks) [area-percent] | purity (HPLC) ([1]; storage 40° C./75% RH, 2 weeks) [area-percent] | purity (HPLC) ([1]; storage 40° C./75% RH, 4 weeks) [area-percent] | purity (HPLC) ([1]; storage −20° C., 0 weeks) [area-percent] | purity (HPLC) ([1]; storage −20° C., 2 weeks) [area-percent] | purity (HPLC) ([1]; storage −20° C., 4 weeks) [area-percent] | course of purity over the 4 week test period (in words) [1] | impurity RRT 0.978 (cleavage of the terminal Cys-Pro residues) ([2]; 0 weeks, −20° C.) [%] | impurity RRT 1.072 (cysteine sulfinic acid impurity) ([2]; 0 weeks, −20° C.) [%] | impurity RRT 1.099 (dimer of the MLA01 peptide) ([2]; 0 weeks, −20° C.) [%] | impurity RRT 0.978 (cleavage of the terminal Cys-Pro residues) ([2]; 4 weeks, 40° C./75% RH) [%] | impurity RRT 1.072 (cysteine sulfinic acid impurity) ([2]; 4 weeks, 40° C./75% RH) [%] | impurity RRT 1.099 (dimer of the MLA01 peptide) ([2]; 4 weeks, 40° C./75% RH) [%] | impurity RRT 0.978 (cleavage of the terminal Cys-Pro residues) ([2]; 4 weeks, −20° C.) [%] | impurity RRT 1.072 (cysteine sulfinic acid impurity) ([2]; 4 weeks, −20° C.) [%] | impurity RRT 1.099 (dimer of the MLA01 peptide) ([2]; 4 weeks, −20° C.) [%] |
| --- | --- | --- | --- | --- | --- | --- | --- | --- | --- | --- | --- | --- | --- | --- | --- | --- | --- | --- | --- | --- |
| CPAVKRDVDLFLT [MLA01 hydrochloride] (also: hydrochloride salt) | more stable than MLA01 acetate or MLA01 trifluoroacetate | 94.0 | 95.7 | 94.3 | 95.5 | 92.4 | 95.3 | 96.6 | 94.0 | 95.6 | stayed constant | <0.1 | 0.1 | 0.34 | 0.2 | 0.2 | 0.6 | 0.1 | <0.1 | 0.7 |
| CPAVKRDVDLFLT [MLA01 acetate] (also: acetate salt) |  | 82.7 | 84.2 | 75.6 | 67.2 | 54.0 | 39.4 | 90.6 | 84.5 | 88.1 | degraded under all conditions tested | 2.0 | 2.5 | 1.6 | 17.1 | 5.9 | 12.8 | 2.3 | 2.8 | 2.5 |
| CPAVKRDVDLFLT [MLA01 trifluoroacetate] (also: trifluoroacetate salt) |  | 95.6 | 95.2 | 94.4 | 94.5 | 91.0 | 89.4 | 96.7 | 95.9 | 95.8 | degraded at higher temperature/humidity | <0.1 | <0.1 | 0.3 | 0.9 | 0.2 | 2.8 | <0.1 | <0.1 | 0.6 |
